{
  "source": "the RNAGym collection of RNA variant scans (doi:10.1093/molbev/msab373)",
  "parents": {"B1": {"name": "Azoarcus group I ribozyme (parent)", "chain": "GUGCCUUGCGCCGGGAAACCACGCAAGGGAUGGUGUCAAAUUCGGCGAAACCUAAGCGCCCGCCCGGGCGUAUGGCAACGCCGAGCCAAGCUUCGGCGCCUGCGCCGAUGAAGGUGUAGAGACUAGACGGCACCCACCUAAGGCAAACGCUAUGGUGAAGGCAUAGUCCAGGGAGUGGCGAAAGUCACACAAACCGG"}},
  "data": [
    {"variants_of": "B1", "experiment": "reverse-splicing fitness (ratio to wild type); higher = more active; in vitro selection; Mg2+ level not given", "outline": "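An in vitro group I ribozyme library with randomized positions was T7-transcribed and gel-purified. In triplicate, 10 pmol RNA in EPPS pH 7.5 was reacted with 50 pmoles of a 30-nt RNA substrate for 1 h at 37 °C across several added MgCl2 levels (1–48 mM), then stopped with EDTA. Products were reverse transcribed from a substrate-complementary primer, PCR-amplified and sequenced (HiSeq 4000). Fitness is a variant's read proportion after selection over that before, normalised to wild type.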", "values": [
      {"variant": "C82A A111U C150U C169G U176G", "reverse-splicing fitness": 0.00649},
      {"variant": "C82A A111U C150U C169G U176C", "reverse-splicing fitness": 0.0182},
      {"variant": "C82A A111U C150U C169G U176A", "reverse-splicing fitness": 0.0151},
      {"variant": "C82A A120C A145C C150U C169G U176G", "reverse-splicing fitness": 0.00542},
      {"variant": "C82A A120C A145C C150U C169G U176A", "reverse-splicing fitness": 0.0287},
      {"variant": "C82A A120C A145C C150U C169G U176C", "reverse-splicing fitness": 0.0186},
      {"variant": "C82A A111U A145U C150G C169U", "reverse-splicing fitness": 0.00971},
      {"variant": "C82A A111U A145U C150G C169G", "reverse-splicing fitness": 0.00819},
      {"variant": "C82A A111U A145U C150G C169A", "reverse-splicing fitness": 0.00877},
      {"variant": "C82A A120C A145U C150A", "reverse-splicing fitness": 0.0195},
      {"variant": "C82A A120C A145U C150G", "reverse-splicing fitness": 0.0161},
      {"variant": "C82A A120C A145U C150U", "reverse-splicing fitness": 0.086},
      {"variant": "C82A A111U C150G C169U U176G", "reverse-splicing fitness": 0.00599},
      {"variant": "C82A A111U C150G C169U U176A", "reverse-splicing fitness": 0.00699},
      {"variant": "C82A A111U C150G C169U U176C", "reverse-splicing fitness": 0.0139},
      {"variant": "C82A A120C A145G C150A C169U U176C", "reverse-splicing fitness": 0.0163},
      {"variant": "C82A A120C A145G C150A C169U U176G", "reverse-splicing fitness": 0.00765},
      {"variant": "C82A A120C A145G C150A C169U U176A", "reverse-splicing fitness": 0.0177},
      {"variant": "C82A A111U U176A", "reverse-splicing fitness": 0.0911},
      {"variant": "C82A A111U U176G", "reverse-splicing fitness": 0.026},
      {"variant": "C82A A111U U176C", "reverse-splicing fitness": 0.158},
      {"variant": "C82A A120C A145G C150U C169U U176G", "reverse-splicing fitness": 0.00621},
      {"variant": "C82A A120C A145G C150U C169U U176A", "reverse-splicing fitness": 0.0157},
      {"variant": "C82A A120C A145G C150U C169U U176C", "reverse-splicing fitness": 0.0136},
      {"variant": "C82A A120C A145C C169A", "reverse-splicing fitness": 0.00831},
      {"variant": "C82A A120C A145C C169U", "reverse-splicing fitness": 0.0188},
      {"variant": "C82A A120C A145C C169G", "reverse-splicing fitness": 0.0102},
      {"variant": "C82A A111U A145U C150G C169U U176A", "reverse-splicing fitness": 0.00775},
      {"variant": "C82A A111U A145U C150G C169U U176C", "reverse-splicing fitness": 0.0122},
      {"variant": "C82A A111U A145U C150G C169U U176G", "reverse-splicing fitness": 0.00727},
      {"variant": "C82A A120C A145G C150G C169A", "reverse-splicing fitness": 0.01},
      {"variant": "C82A A120C A145G C150G C169G", "reverse-splicing fitness": 0.00868},
      {"variant": "C82A A120C A145G C150G C169U", "reverse-splicing fitness": 0.0111},
      {"variant": "C82A A111U C150G U176A", "reverse-splicing fitness": 0.00718},
      {"variant": "C82A A111U C150G U176G", "reverse-splicing fitness": 0.00369},
      {"variant": "C82A A111U C150G U176C", "reverse-splicing fitness": 0.015},
      {"variant": "C82A A120C A145U C150G C169U U176G", "reverse-splicing fitness": 0.00519},
      {"variant": "C82A A120C A145U C150G C169U U176A", "reverse-splicing fitness": 0.00709},
      {"variant": "C82A A120C A145U C150G C169U U176C", "reverse-splicing fitness": 0.00999},
      {"variant": "C82A A120C A145U C150G C169U", "reverse-splicing fitness": 0.0114},
      {"variant": "C82A A120C A145U C150G C169A", "reverse-splicing fitness": 0.0101},
      {"variant": "C82A A120C A145U C150G C169G", "reverse-splicing fitness": 0.00692},
      {"variant": "C82A A111U C150A U176A", "reverse-splicing fitness": 0.0197},
      {"variant": "C82A A111U C150A U176G", "reverse-splicing fitness": 0.00995},
      {"variant": "C82A A111U C150A U176C", "reverse-splicing fitness": 0.0292},
      {"variant": "C82A A111U A145U C169A U176G", "reverse-splicing fitness": 0.00655},
      {"variant": "C82A A111U A145U C169A U176A", "reverse-splicing fitness": 0.012},
      {"variant": "C82A A111U A145U C169A U176C", "reverse-splicing fitness": 0.0114},
      {"variant": "C82A A111U A145G C150U C169A U176G", "reverse-splicing fitness": 0.00694},
      {"variant": "C82A A111U A145G C150U C169A U176C", "reverse-splicing fitness": 0.0162},
      {"variant": "C82A A111U A145G C150U C169A U176A", "reverse-splicing fitness": 0.016},
      {"variant": "C82A A120C A145C C169A U176C", "reverse-splicing fitness": 0.00953},
      {"variant": "C82A A120C A145C C169A U176G", "reverse-splicing fitness": 0.00403},
      {"variant": "C82A A120C A145C C169A U176A", "reverse-splicing fitness": 0.015},
      {"variant": "C82A A120C A145U C150G C169A U176A", "reverse-splicing fitness": 0.0116},
      {"variant": "C82A A120C A145U C150G C169A U176G", "reverse-splicing fitness": 0.00455},
      {"variant": "C82A A120C A145U C150G C169A U176C", "reverse-splicing fitness": 0.0131},
      {"variant": "C82A A120C A145G C150G U176G", "reverse-splicing fitness": 0.00716},
      {"variant": "C82A A120C A145G C150G U176A", "reverse-splicing fitness": 0.00881},
      {"variant": "C82A A120C A145G C150G U176C", "reverse-splicing fitness": 0.0148},
      {"variant": "C82A A111U A145G U176A", "reverse-splicing fitness": 0.0978},
      {"variant": "C82A A111U A145G U176C", "reverse-splicing fitness": 0.151},
      {"variant": "C82A A111U A145G U176G", "reverse-splicing fitness": 0.0224},
      {"variant": "C82A A120C A145C C150U C169U U176C", "reverse-splicing fitness": 0.00988},
      {"variant": "C82A A120C A145C C150U C169U U176A", "reverse-splicing fitness": 0.0127},
      {"variant": "C82A A120C A145C C150U C169U U176G", "reverse-splicing fitness": 0.00452},
      {"variant": "C82A A111U A145G C169U U176A", "reverse-splicing fitness": 0.0154},
      {"variant": "C82A A111U A145G C169U U176C", "reverse-splicing fitness": 0.0157},
      {"variant": "C82A A111U A145G C169U U176G", "reverse-splicing fitness": 0.00628},
      {"variant": "C82A A120C A145U C150U C169A", "reverse-splicing fitness": 0.00998},
      {"variant": "C82A A120C A145U C150U C169G", "reverse-splicing fitness": 0.0103},
      {"variant": "C82A A120C A145U C150A U176A", "reverse-splicing fitness": 0.0143},
      {"variant": "C82A A120C A145U C150A U176C", "reverse-splicing fitness": 0.0233},
      {"variant": "C82A A120C A145U C150A U176G", "reverse-splicing fitness": 0.00574},
      {"variant": "C82A A120C A145G C169U U176C", "reverse-splicing fitness": 0.0162},
      {"variant": "C82A A120C A145G C169U U176G", "reverse-splicing fitness": 0.00469},
      {"variant": "C82A A120C A145G C169U U176A", "reverse-splicing fitness": 0.0173},
      {"variant": "C82A A120C A145G C169G U176A", "reverse-splicing fitness": 0.0237},
      {"variant": "C82A A120C A145G C169G U176C", "reverse-splicing fitness": 0.0316},
      {"variant": "C82A A120C A145G C169G U176G", "reverse-splicing fitness": 0.0041},
      {"variant": "C82A A111U A145G C150G C169U U176C", "reverse-splicing fitness": 0.0142},
      {"variant": "C82A A111U A145G C150G C169U U176G", "reverse-splicing fitness": 0.00787},
      {"variant": "C82A A120C A145C C150A C169G U176A", "reverse-splicing fitness": 0.032}
    ]}
  ]
}
